Data taken from article PMC5965250.

Molecular target: HyHEL-10 antibody
Experiment: SPR; binding affinity of the HEL variants to HyHEL-10; who was immobilised is not shown (Fig. S20)

## HEL-K96Nvoc (10) (from UniProt P00698 19-147) (natural protein)
  fold weaker binding affinity than native HEL: 6000 fold
